Experimental data from the RNAGym collection of RNA variant scans (doi:10.1093/nar/gkz1192).

B1: CPEB3 Ribozyme (parent)
chain: UAACAGGGGGCCACAGCAGAAGCGUUCACGUCGCAGCCCCUGUCAGAUUCUGGUGAAUCUGCGAAUUCUGCUGUAUAUCUC

Variants of: B1
Test: self-cleavage, relative activity (ratio to wild type); higher = more cleavage; in vitro, sequencing
Outline: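 Barcoded CPEB3 ribozyme mutants, produced by rounds of error-prone PCR, self-cleaved while being transcribed with T7 RNA polymerase for 5 hours at 37°C and during a subsequent 15 min DNase I step before EDTA was added. Sequencing of template-switched cDNA on Illumina gave cleaved and total reads, and DNA sequencing assigned barcodes to variants. Each variant's relative activity is its cleaved/total read fraction divided by the unmutated ribozyme's fraction, averaged across three batches. A variant needed a minimum of 5 reads.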

Point of comparison: A57C, self-cleavage 0.48. Against it:
- U58A A77G — lower, 0.38
- U58A A77C — lower, 0.33
- U58A A77U — lower, 0.43
- A57G — higher, 0.96
- A57U — higher, 0.8
- A56C U80C — higher, 0.93
- G55U A65U — lower, 0.31
- G55U A65G — lower, 0.24
- A56G G63U — higher, 1.03
- A56G G63A — higher, 0.97
- G55U U74C — higher, 1.35
- A56G G70C — lower, 0.21
- A56G G70A — higher, 0.49
- A56G G70U — lower, 0.25
- A57C G61C — lower, 0.16
- G55C — higher, 0.94
- G55U — higher, 1.02
- G55A — higher, 0.84
- G55U U72C — higher, 0.78
- G55C U69C — lower, 0.44
- A57G C68U — higher, 0.77
- A57G C68G — lower, 0.4
- A56U C71G — lower, 0.26
- A56U C71U — lower, 0.46
- A56U C71A — lower, 0.26
- G55C U78C — higher, 0.94
- G55C U78A — higher, 0.97
- A56U — higher, 0.74
- A56G — higher, 0.91
- A56C — higher, 0.63
- A57G C81G — higher, 1.2
- A57G C81U — higher, 1.13
- A56U U66A — lower, 0.25
- A56U U66C — lower, 0.32
- G55A U72C — higher, 0.83
- G55A U72A — higher, 0.53
- G55C C62U — lower, 0.22
- A56C U69C — lower, 0.12
- G55A U58C — lower, 0.27
- A56G U78G — higher, 0.96
- A56G U78C — higher, 0.73
- A56G U78A — higher, 0.91
- A56G G61U — higher, 0.62
- A56G G61A — higher, 0.63
- A57G G61A — higher, 0.59
- A57G G61U — higher, 0.64
- A57G G70C — lower, 0.22
- A57G G70A — higher, 0.49
- G55U U66C — higher, 0.49
- G55A U78A — higher, 1
- G55A U78C — higher, 0.75
- A57G U74C — higher, 1.15
- A57G U74A — higher, 1.2
- A57G U74G — higher, 1.23
- A57U U76C — higher, 0.94
- A57U U76A — higher, 1.01
- A57C C62U — lower, 0.14
- U54G U78A — higher, 1
- U54G U78C — higher, 0.68
- A56C A57G — higher, 0.5
- A56U U69C — lower, 0.38
- A56U U69G — lower, 0.46
- A56U U69A — lower, 0.33
- A56G A64U — lower, 0.3
- A56G A64C — lower, 0.46
- A56G A64G — higher, 0.8
- G55C U67A — lower, 0.44
- A56U U67C — lower, 0.26
- A56U U67G — lower, 0.16
- A56U U67A — lower, 0.43
- G55C A77G — higher, 1.04
- A56C C62A — lower, 0.24
- A57G G63A — higher, 0.84
- G55U U80C — higher, 1.06
- G55U U80A — higher, 1.11
- A57C A75U — higher, 0.58
- U54G U72A — lower, 0.41
- U54G U72C — higher, 1.16
- U54G U72G — higher, 0.93
- A56U G73A — higher, 1.18
- G55A U74A — higher, 1.18
- A57G U72A — higher, 0.62
- A57G U72G — higher, 1.01
- A57G U72C — higher, 1.05
- A57G U78C — higher, 0.83
- A57G U78G — higher, 1.12
- A57G U78A — higher, 0.97
- G55U U67C — lower, 0.21
- A56C U76A — higher, 0.71
- G55C U72A — lower, 0.4
- A57G U69G — higher, 0.72
- A57G U69A — higher, 0.54
- A57G U69C — the same, 0.48
- A57C G63A — higher, 0.58
- G55U C79U — higher, 1.16
- G55A A77G — higher, 0.96
- A57C U66C — lower, 0.16
- A57C U66A — lower, 0.2
- G55A A64G — higher, 0.61
- G55A A64U — lower, 0.25
- A56G C62G — lower, 0.2
- A56G C62A — lower, 0.23
- A56G C62U — lower, 0.31
- A57G U60C — lower, 0.42
- A57G U60G — lower, 0.26
- A57G U60A — lower, 0.4
- G55C U80A — higher, 0.7
- A57U C62U — lower, 0.21
- A57U U60C — lower, 0.27
- A57U U60A — lower, 0.24
- A56G U60C — lower, 0.42
- A56G U60A — lower, 0.41
- A56G U60G — lower, 0.34
- A57U C79G — higher, 1.16
- A56U A65U — lower, 0.21
- A56U A65G — lower, 0.29
- A56G C59A — lower, 0.23
- A56G C59U — higher, 0.52
- A56G C59G — lower, 0.21
- A56U C81A — higher, 1.2
- A57C U78C — higher, 0.66
- A57C U78A — lower, 0.4
- A56G A57C — lower, 0.19
- A56G A57U — lower, 0.37
- A56G A57G — lower, 0.42
- A57U A64G — higher, 0.75
- A57U A64U — lower, 0.21
- A56U G63A — the same, 0.48
- A56U G63C — higher, 0.61
- A57U U74A — higher, 1.23
- A57U U74C — higher, 1.03
- G55A A56U — higher, 0.84
- G55A A56G — higher, 0.8
- A56U U80A — higher, 1
- A56U U80C — higher, 0.83
- A56G U66C — lower, 0.29
- A56G U66G — lower, 0.38
- A56G U66A — lower, 0.44
- A57G U76A — higher, 1.01
- A57G U76C — higher, 1.01
- A57G U76G — higher, 1.08
- A56C U66C — lower, 0.32
- A56U U74C — higher, 1.06
- A56U U74A — higher, 1.17
- A57U U66C — lower, 0.33
- G55U U78C — higher, 0.75
- A56U A57U — higher, 0.59
- A56U A57G — lower, 0.47
- G55A U67A — lower, 0.28
- G55A U67C — lower, 0.22
- A57C U58C — lower, 0.3
- A56U C59U — lower, 0.19
- A56U C59A — lower, 0.28
- A56U C59G — lower, 0.13
- A56U C79A — higher, 1.12
- U58A A64G — lower, 0.32
- A57U U72C — higher, 0.89
- A57U U72A — lower, 0.43
- U54G U66C — lower, 0.28
- G55U A75G — higher, 0.92
- A56G C81A — higher, 0.96
- A56G C81G — higher, 1.22
- A56G C81U — higher, 1.13
- A56U G61A — lower, 0.29
- A57C U67C — lower, 0.27
- A56G C71U — higher, 0.51
